Source: patent US20250320294A1
Each block holds one binder with its values, some of them ahead of it.

Legend:
[1] = molecular target: human-CD45RO-ECD-His (human) (UniProt P08575); experiment: ELISA, human-CD45RO-ECD-His-coated plates
[2] = molecular target: human-CD45RO-ECD-His (human) (UniProt P08575); experiment: SPR, captured human-CD45RO-ECD-His, 1:1 binding
[3] = molecular target: human-CD45RO-ECD-His (human) (UniProt P08575); experiment: SPR, captured human-CD45RO-ECD-His, 1:1 binding; row label printed 'Clone 023' a second time, taken as clone 028 by the order in paragraph 382

EC50 [1]: 0.144 nM
B1: anti-CD45 antibody clone 042 (antibody, V domains shown)
VH: EVQLQQSGAELVKPGASVKLSCTASGFNIKDTFMHWVKLRPEQGLEWIGRIDPANGYTKYDPRFQGKATIIADTSSNTAYLQLSSLTSEDTAVYYCASGEYYALDYWGQGTSVTVSS
VL: DIVLTQSPASLTVSLGQRATISCRASKSVSTSGYSYMHWYQQKPGQPPKLLIYLASNLESGVPARFSGSGSGTDFTLNIHPVEEEDAATYYCQHNRELPYTFGGGTKLEIK

EC50 [1]: 0.139 nM | Kd [2]: 79.5 nM | koff [2]: 0.000335 s⁻¹ | kon [2]: 4220 M⁻¹ s⁻¹
B2: anti-CD45 antibody clone 031 (antibody, V domains shown)
VH: DVQLVESGGGLVQPGGSRKLSCAASGFTFSSFGMHWVRQAPEKGLEWVAYINSGSTTFYYADTVKGRFTISRDNPKNTLFLQMTSLGSEDTAMYYCARSATATWTMDYWGQGTSVTVSS
VL: NIMMTQSPSSLAVSAGEKVTMSCKSSQSVFVSSNQKNYLAWYQQKPGQSPKLLIYWASTRESAVPDRFTGSGSGTDFTLTIGSVQAEDLAVYYCHQYLSSWTFGGGTKLEIK

EC50 [1]: 0.0734 nM | Kd [2]: 3.72 nM | koff [2]: 0.000282 s⁻¹ | kon [2]: 75800 M⁻¹ s⁻¹
B3: anti-CD45 antibody clone 027 (antibody, V domains shown)
VH: QVQLQQSAPELARPGASVRMSCKASGYTFTTYTMNWLTQRPGQGLEWIGYINPSSGYTEYNQKFKDKTSLTADTSSSTAYMQLSSLTSEHSAVYYCARASGYSSWFAYWGQGTLVTVSA
VL: NIVMTQTPKFLLVSAGDRVTITCKASQSVNNDVGWYQQKPGQSPKLLIYYASNRYTGVPDRFTGSGYGTDFTFTISTVQAEDLAVYFCQQDYNSPLTFGAGTKLELK

EC50 [1]: 0.0319 nM | Kd [3]: 39.9 nM | koff [3]: 0.000591 s⁻¹ | kon [3]: 14800 M⁻¹ s⁻¹
B4: anti-CD45 antibody clone 028 (antibody, V domains shown)
VH: QVQLQQSGAELARPGASVKMSCKASGYTFTFYAILWVKQMPGQGLEWIGFINPSSGYTSYNQKFKDKATLTADKSSSTAYMQLSSLTSEDSAVYYCARDYGLDYWGQGTTLAVSS
VL: DIVMTQAAPSVPVTPGESVSISCRSSKSLLHSNGNTYLYWFLQRPGQSPQLLIYRMSNLASGVPDRFSGSGSGTAFTLGISRVEAGDVGVYYCMQHLEYPFTFGSGTKLEIK
